In test [1] the target is HIV-RSC3. The test can be described thus: biolayer interferometry (Octet); fragment secreted by L. gasseri SP1. (Biolayer interferometry detects binding as a change in optical thickness at a sensor tip.)
The target in test [2] is TNFα (UniProt P01375). Description: biolayer interferometry; fragment secreted by L. rhamnosus GG SP1.
In test [3] the target is TNFα (UniProt P01375). Description: biolayer interferometry (Octet); fragment secreted by L. gasseri.

Sequence of UniProt P01375 (P01375 77-233 limits assumed): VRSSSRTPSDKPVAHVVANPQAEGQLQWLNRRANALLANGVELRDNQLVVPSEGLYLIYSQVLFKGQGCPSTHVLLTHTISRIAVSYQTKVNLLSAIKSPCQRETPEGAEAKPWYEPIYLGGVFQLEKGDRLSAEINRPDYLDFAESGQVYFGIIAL

As for “VRC01scFv (anti-HIV single chain fragment derived from the broadly neutralizing IgG antibody VRC01)”, the Kd in test [1] stood at 10.2 nM.

For “ozoralizumab (anti-TNFα NANOBODY / antibody fragment marketed by Ablynx) (VHH)”, the Kd was 6.2 nM in test [2] and 0.69 nM in test [3].

In general, Kd refers to the concentration at which binding is half-saturated. A higher Kd goes with weaker binding.
